The data set concerns the target PU.1 (recombinant) (mouse, UniProt P17433 1-272). The data set can be described thus: EMSA.

B1: c-fms -150 mutant M1 (MT-1) (dsDNA)
DNA 1: GCCCAAGTAGTAGTAAGAGTAAAACAAG
DNA 2: CTTGTTTTACTCTTACTACTACTTGGGC
For the molecule B1, the binding result was “no binding”.

B2: c-fms -150 PU-ets wild type (dsDNA)
DNA 1: GCCCAAGGAGGAGGAAGAGGAAAACAAG
DNA 2: CTTGTTTTCCTCTTCCTCCTCCTTGGGC
Take B2: the binding result is listed as “binds”.

These data come from article PMC2191783.
